Reference: patent US20240043504A1 (published 2024)
Changes are numbered by the printed parent chain.

B1: mAb10939 (antibody, V domains shown)
VH: EVQLVESGGGLVQPGGSLRLSCAASGLTVSSNYMNWVRQVPGKGLEWVSVIYSGGSKFYVDSVKGRFTISRHNSKNTLYLQMNSLRPEDTAVYYCTRDAQYYGMDVWGQGTTVTVSS
VL: DIQMTQSPSSLSASVGDRVTITCRASQSISTYLHWYQQKPGEAPKLLIYAASSLQSGVPSRFSGSGSGTDFTLTISSLQPEDFATYYCQQSYSTPPEIFGQGTKLEIKR
B2: mAb10936 (antibody, V domains shown)
VH: QVQLVESGGGVVQPGRSLRLSCAASGFTFRNYGMHWVRQAPGKGLEWVSVIWYDGSNRYYADSVKGRFTISRDTSKNTLYLQMNSLRAEDTAVYYCARDPPITGTTGGDAFDIWGQGTMVTVSS
VL: not shown
B3: mAb10921 (antibody, V domains shown)
VH: EVQLVESGGGLVQPGGSLRLSCAASGITVSSNYMSWVRQAPGKGLEWVSVIYSGGSTFYADSVKGRFTISRHNSKNTLYLQMNSLRAEDTAVYYCARERNFDAFDIWGQGTMVTVSS
VL: DIQMTQSPSSVSASVGDRVTITCRASQGISSWLAWYQQKPGKAPKLLIYAASSLQSGVPSRFSGSGSGTDFTLTISSLQPEDFATYYCQQANSFPLFTFGPGTKVDIKR
B4: mAb10969 (antibody, V domains shown)
VH: QVQLVESGGGVVQPGRSLRLSCAASGFTFSSYAMHWVRQAPGKGLEWVAVISYDGSNKYYADSVKGRFTISRDNSKNTLYLQMNSLRAEDTAVYYCARDGRTITMVRGVIDDAFDIWGQGTMVTVSS
VL: not shown
B5: mAb10914 (antibody, V domains shown)
VH: EVQLVESGGGLVQPGGSLRLSCAASGLIVSRNYMIWVRQAPGKGLEWVSVIYSGGSTFYADSVKGRFTISRHNSKNTLYLQMNSLRAEDTAVYYCARDLGTGGMDVWGQGTTVTVSS
VL: DIQLTQSPSFLSASVGDRVTITCWASQGISSYLAWYQQKPGKAPKLLIYAASTLQSGVPSRFSGSGSGTEFTLTISSLQPEDFATYYCQQLNSYPLTFGGGTKVEIKR
B6: mAb10957 (antibody, V domains shown)
VH: B5 VH with L27V, I28T, R31S, I35S, H72D, Y79F, A87I, T101P, G102Y
VL: B3 VL with M4L, S10F, V11L, W32Y, S53T, D70Q, T72I, A91L, F94Y, L96G
B7: mAb10956 (antibody, V domains shown)
VH: B5 VH with I28T, R31S, I35S, H72D, G100I, T101K, G102Y
VL: not shown
B8: mAb10965 (antibody, V domains shown)
VH: EVQLVESGGGLIQPGGSLRLSCAASVFTVSYNYMSWVRQAPGKGLEWVSVIYSGGSTYYADSVKGRFTISRDNSKNTLYLQMNSLRAEDTAVYYCARALPGWGGSFEYFDYWGQGTLVTVSS
VL: not shown
B9: mAb10920 (antibody, V domains shown)
VH: QVQLVESGGGVVQPGRSLRLSCAASGFTFSYYGMHWVRQAPGKGLEWVAVIWYDGSNKFYADSVKGRFTISRDNSKNTLYLQMNSLRAEDTAVYYCAAARPGYYYGMDVWGQGTTVTVSS
VL: DIQMTQSPSSLSASVGDRVTITCRASQGISNYLAWFQQKPGKAPNSLIYAASSLQRGVPSKFSGSGSGTDFTLTISSLQPEDFATYYCQQYNSYPRTFGQGTKVEIKR
B10: mAb10934 (antibody, V domains shown)
VH: not shown
VL: DIQMTQSPSSLSASVGDRVTITCQASQDIWNYINWYQQKPGKAPKLLIYDASNLKTGVPSRFSGSGSGTDFTFTISSLQPEDIATYYCQQHDDLPPTFGQGTKVEIKR
B11: mAb10935 (antibody, V domains shown)
VH: EVQLVESGGGLVQPGGSLRLSCAASGFTVSSNYMSWVRQAPGKGLEWVSLIYSGGSTYYADSVKGRFTISRHNSKNTLYLQMNSLRSEDTAVYYCARVPLGDYYYGMDVWGQGTTVTVSS
VL: B10 VL with W30N, N31K, I33L, K55E, H91S, D93N, P96L, Q100G
B12: mAb10938 (antibody, V domains shown)
VH: EVQLVESGGGLVQPGGSLRLSCAVSGFTVSSNYMSWVRQAPGKGLEWVSLIYSGGSTFYADSVKGRFTISRHNSKNTLYLQMNSLRAEDTAVYYCAREGGYSYDYNYWGQGTLVTVSS
VL: B10 VL with W30R, I33L, K55E, S65I, H91Y, D93N, P96I, K103R, V104L
B13: mAb10955 (antibody, V domains shown)
VH: EVQLVESGGGLVQPGGSLRVSCAASGFTVSRNYMSWVRQAPGKGLEWVSVIYSGGSTFYADSVKGRFTISRDNSKNTLYLQMNSLRAEDTAIYYCARYIPRFDPWGQGTLVTVSS
VL: B10 VL with W30S, I33L, Y36F, K42R, K55E, H91Y, D93N, P96I, K103R, V104L
B14: mAb10954 (antibody, V domains shown)
VH: EVQLVESGGGLVQPGGSLRLSCAASGITVSSNYMSWVRQAPGKGLEWVSLIYSGGSTYYADSVKGRFTISRDNSKNTLYLQMNSLRVEDTAVYYCARDHGMAAAGYNYWGQGTLVTVSS
VL: B10 VL with W30N, N31K, I33L, K55E, S76N, I83F, Y87F, H91Y, D93N, T97A
B15: mAb10967 (antibody, V domains shown)
VH: EVQLVESGGGLVQPGGSLRLSCAASGFTVSSNYMSWVRQAPGKGLEWVSVIYPGGSTFYADSVKGRFTISRDNSKNTLYLQMNSLRAEDTAVYYCARDQRDFAWGQGTLVTVSS
VL: B10 VL with W30S, I33L, K55E, S77G, H91Y, D93N, K103R, V104L
B16: mAb10937 (antibody, V domains shown)
VH: QITLKESGPTLVKPTQTLTLTCTFSGFSLSTNVVGVGWIRQPPGKALEWLALIYWNDDKRYSPSLKSRLTITKDTSKNQVVLTMTNMDPVDTATYYCAHGPTGDYFDYWGQGTLVTVSS
VL: not shown
B17: mAb10966 (antibody, V domains shown)
VH: EVQLVESGGGLVQPGGSLRLSCAASGLTVSSNYMSWVRQAPGKGLEWVSVIYSGGSTFYADSVKGRFTISRDNSKNTLYLQMNSLRPEDTAVYYCAREGRIAATGYGMDVWGQGTTVTVSS
VL: not shown
B18: mAb10913 (antibody, V domains shown)
VH: EVQLVESGGGLVQPGGSLRLSCAASGFTFRNYEMNWVRQAPGKGLEWVSYITSSGSTMYYADSVKGRFTISRDNAKNSLYLQMNSLRAEDTAVYYCARDGFYYYYAMDVWGQGTTVTVSS
VL: QSVLTQPPSVSAAPGQKVTISCSGSSSNIGNNYVSWYQQLPGTAPKLLIYDNNKRPSGIPDRFSGSKSGTSATLGITGLQTGDEADYYCGTWDSSLSVGRVFGTGTKVTVLG
B19: mAb10964 (antibody, V domains shown)
VH: QVQLQESGPGLVKPSETLSLTCTVSGGSINNYYWIWIRQPPGKGLEWIGYIYHSGSTNYNPSLKSRVTISVDTSKNQFSLKVSSVTAADTAVYYCANMVRGVYEDDYWGQGTLVTVSS
VL: DIQMTQSPSSLSASVGDRVTITCRASQSISNYLNWYQQKPGKAPKLLIFAASSLRSGVPSRFSGSGSGTDFTLTISSLHPEDFATYYCQQNYNTPLTFGPGTKVDIKR
B20: mAb10932 (antibody, V domains shown)
VH: EVQLVESGGGLVQSGGSLRLSCAASGLTVSSNYMSWVRQAPGKGLEWVSVIYSGGSTFYSDSVKGRFTISRHNSKNTLYLQMNSLRAEDTAVYYCARARGDAFDIWGQGTMVTVSS
VL: not shown
B21: mAb10930 (antibody, V domains shown)
VH: EVQLVESGGGLVQPGRSLRLSCAASGFTFDDYAMYWVRQAPGKGLEWVSGISWNSGSIGYADSVKGRFTISRDNAKNSLYLQMNSLRAADTALYYCAKDKDWNSRGYYYYGMDVWGQGTTVTVSS
VL: not shown
B22: mAb10971 (antibody, V domains shown)
VH: EVQLVESGGGLIQPGGSLRLSCAASGVTVSSNYMSWVRQAPGKGLEWVSVIYSGGSTFYSDSVKGRFSISRDNSKNTLYLQMNSLRAEDTAVYYCARDLYYYGMDVWGQGTTVTVSS
VL: DIQLTQSPSFLSASVGDRVTITCRASQGISTYLAWYQQKPGKAPKLLIYAASTLQSGVPSRFSGSGSGTEFTLTISSLQPEDFATYYCQQLDSYPGLTFGGGTKVEIKR
B23: mAb10915 (antibody, V domains shown)
VH: EVQLVESGGGLVQPGGSLRLSCAASGFTVSSNYMNWVRQAPGKGLEWVSVIYSGGSTFYADSVKGRFTISRHNSKNTLYLQMNSLRPEDTAVYYCARDLGGYFDYWGQGTLVTVSS
VL: not shown
B24: mAb10923 (antibody, V domains shown)
VH: QVQLVQSGAEVKKPGASVKVSCKASGYTFINYYIHWVRQAPGQGLEWMGWINPNSGGTNYAQKFQGRVTMTRDTSISTAYMELSRLRSDDTAVYYCAIITIFGVVTWFDPWGQGTLVTVSS
VL: not shown

Target: SARS-COV-2 RBD extracellular domain expressed with a C-terminal mouse IgG2a (SARS-CoV-2)
Assay: SPR Biacore, mAb captured via anti-hFc, 25 C

| Binder | Kd | koff | kon | t½ |
| --- | --- | --- | --- | --- |
| B1 | 0.121 nM | 8.74e-05 s⁻¹ | 722000 M⁻¹ s⁻¹ | 2.2 h |
| B2 | 0.0283 nM | 5.04e-05 s⁻¹ | 1.78e+06 M⁻¹ s⁻¹ | 3.82 h |
| B3 | 0.125 nM | 3.34e-05 s⁻¹ | 266000 M⁻¹ s⁻¹ | 5.76 h |
| B4 | 0.216 nM |  |  | 1.93 h |
| B5 | 0.54 nM |  |  | 1.38 h |
| B6 | 0.0327 nM |  |  | 5.75 h |
| B7 | 0.0887 nM |  |  | 1.48 h |
| B8 | 0.225 nM |  |  | 1.23 h |
| B9 | 0.0502 nM |  |  | 0.755 h |
| B10 | 0.0139 nM |  |  |  |
| B11 | 0.0794 nM | 0.000107 s⁻¹ | 1.35e+06 M⁻¹ s⁻¹ | 1.8 h |
| B12 | 0.0702 nM |  |  | 11.4 h |
| B13 | 0.0771 nM |  |  | 2.09 h |
| B14 | 0.0203 nM |  |  | 4.03 h |
| B15 | 0.0203 nM |  |  | 14.3 h |
| B16 | 0.0304 nM | 5.4e-05 s⁻¹ | 1.78e+06 M⁻¹ s⁻¹ | 3.56 h |
| B17 | 0.0224 nM |  |  | 5.71 h |
| B18 | 0.0553 nM | 0.000277 s⁻¹ | 5e+06 M⁻¹ s⁻¹ | 0.695 h |
| B19 | 0.00397 nM |  |  | 5.22 h |
| B20 | 0.0967 nM | 2.85e-05 s⁻¹ | 295000 M⁻¹ s⁻¹ | 6.75 h |
| B21 | 0.181 nM | 0.000171 s⁻¹ | 943000 M⁻¹ s⁻¹ | 1.12 h |
| B22 | 0.0292 nM | 4.09e-05 s⁻¹ | 1.4e+06 M⁻¹ s⁻¹ | 4.71 h |
| B23 | 0.0323 nM |  |  | 21.1 h |
| B24 | 0.0367 nM | 0.000135 s⁻¹ | 3.69e+06 M⁻¹ s⁻¹ | 1.43 h |
